Experimental data: IntAct's records for PubMed 28441531

B1: Myelin regulatory factor homolog 1 (Caenorhabditis elegans), G5EFI7 (parent)
chain: MSSSDLLKGEFDGLNSEHFNMMQYLTQDTDEDDGSMVSPTSSADSMHQNLGVQQQQQQMLQAQQRQNQNGIFQPRRFPESPAMTDPCGNVSSSSSSSHHSDPMFSPNEFNGYAGANDNGNQTMNNIQSQQLSQQQHQQTRGGNLMMPQQSSIHAQMQNMNAPQFWSQPGTAAVNQPTNTLAQLNLFNIIRGGADSGMPSPVLEMPRKRSRLDTPCETPRIAPSFAGIDGFPDENYSQQQAIRFSKFQEEQWSPLYDINAQPLQQLQVHVVADKGFNYNSNDNCFVNQKKNHFQISVNVEASDTMPPKYVNFNNRLVPIRDFKLSFCGVKAEMPSSEITIRQSRADRKPHTHTPVLFEIQERRMTKVCVPRLHFSETTLNNQRKQKNRPNPEQKFFLLVVRLFASIDESEHGVLIQSYASEKVIVRATNPGSFEPQDTDIGWQRNGGALYTQGAVSVGTEHQVESAKLTVAGDIYMSGRIINPSDIRLKEAITERETAEAIENLLKLRVVDYRYKPEVADIWGLDEQQRHRTGLIAQELQAVLPDAVRDIGDYLTIDEGRVFYETVMATQQLCRMTGDLDSKIDEKVAEISRRLNEYAVRKKLASSMASNLNGDNKSLSYSRCSLTSTATNATSQPKRSRKHRAIKQAQSCGSRLSQGTVVTLVSIMAACLLAMSALYVLDWHNRNYGYHQHFETNTPSTKGELANLVISPANFMPSFQPDAPILLEKCFNPSCKTYCCTDTPPVVEDSRAIATHGLDNGDEVYPESPSNRTNGIARAPNLEHMAFETGVEIRIPALNVTLDQRYCVERSCNKRKGIFNVFVPVSRYMPDVALEIEIKAPISKVVSNCGAFPSTEFNHKVCPLSRTQQSESPVPTSTRLFDNIFELSMGSFIQSAYRFRVGYSTETCFSEDSNGSYEEYNLIFYRMCTLSSS
partner: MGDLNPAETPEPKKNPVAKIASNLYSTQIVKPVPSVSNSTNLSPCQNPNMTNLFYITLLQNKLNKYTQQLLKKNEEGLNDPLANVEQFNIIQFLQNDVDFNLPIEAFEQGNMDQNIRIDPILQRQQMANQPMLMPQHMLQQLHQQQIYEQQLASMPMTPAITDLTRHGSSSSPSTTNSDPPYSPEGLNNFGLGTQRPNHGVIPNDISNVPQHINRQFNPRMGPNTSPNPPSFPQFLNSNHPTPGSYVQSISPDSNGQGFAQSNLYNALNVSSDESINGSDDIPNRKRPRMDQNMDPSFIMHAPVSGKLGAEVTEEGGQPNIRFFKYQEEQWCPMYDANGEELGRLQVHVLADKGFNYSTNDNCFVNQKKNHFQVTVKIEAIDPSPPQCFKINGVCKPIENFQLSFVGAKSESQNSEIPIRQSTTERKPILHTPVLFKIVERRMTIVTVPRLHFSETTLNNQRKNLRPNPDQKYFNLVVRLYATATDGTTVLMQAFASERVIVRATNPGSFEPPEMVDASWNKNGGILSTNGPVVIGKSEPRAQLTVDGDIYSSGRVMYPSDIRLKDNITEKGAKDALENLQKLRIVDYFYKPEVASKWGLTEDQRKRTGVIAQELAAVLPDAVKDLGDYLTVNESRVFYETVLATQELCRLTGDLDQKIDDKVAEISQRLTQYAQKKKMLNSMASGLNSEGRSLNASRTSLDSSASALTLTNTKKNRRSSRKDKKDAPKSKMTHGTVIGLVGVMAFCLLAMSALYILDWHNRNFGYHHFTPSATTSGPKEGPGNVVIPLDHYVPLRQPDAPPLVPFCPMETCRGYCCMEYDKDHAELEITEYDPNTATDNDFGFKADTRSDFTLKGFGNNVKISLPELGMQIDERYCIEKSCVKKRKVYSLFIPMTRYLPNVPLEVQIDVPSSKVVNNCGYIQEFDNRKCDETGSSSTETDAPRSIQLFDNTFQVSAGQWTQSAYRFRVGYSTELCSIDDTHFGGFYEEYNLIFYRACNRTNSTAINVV

Variants of: B1
Settings: with myrf2_caeel myrf-2, D9PTN5

Row | effect of a mutation on the interaction | Variant
1 | with no effect | G274R
